Test results published in the Immune Epitope Database (IEDB).

Key:
HLA-A*02:01 = assay: IEDB peptide-MHC binding, purified MHC/direct/fluorescence; filed as Kd, often an IC50 or EC50 that approximates it; ≥ and ≤ were set here for values at or beyond the usual limits of such assays
HLA-A*02:03 = assay: as above; settings: source organism: Variola virus
HLA-A*02:06 = assay: as above
HLA-A*69:01 = assay: as above; settings: source organism: Camelpox virus CMS
HLA-A*02:11 = assay: as above; settings: source organism: Entamoeba histolytica HM-1:IMSS
HLA-A*02:12 = assay: as above; settings: source organism: Entamoeba histolytica HM-1:IMSS
HLA-A*02:16 = assay: as above
HLA-A*02:19 = assay: as above; settings: source organism: Entamoeba histolytica HM-1:IMSS
HLA-A*03:01 = assay: as above
HLA-A*23:01 = assay: as above
HLA-A*24:03 = assay: as above
HLA-A*26:01 = assay: as above; settings: source organism: Entamoeba histolytica HM-1:IMSS
HLA-A*29:02 = assay: as above
HLA-B*15:01 = assay: as above
HLA-B*15:17 = assay: as above
HLA-B*27:03 = assay: as above
HLA-B*39:01 = assay: as above
HLA-B*40:01 [1] = assay: as above; settings: source organism: Entamoeba histolytica HM-1:IMSS
HLA-B*46:01 = assay: as above
HLA-B*51:01 = assay: as above
HLA-B*57:01 = assay: as above
HLA-A*01:01 = assay: IEDB peptide-MHC binding, purified MHC/competitive/fluorescence; filed as Kd, often an IC50 or EC50 that approximates it; ≥ and ≤ were set here for values at or beyond the usual limits of such assays
HLA-A*11:01 = assay: as above
HLA-A*30:01 = assay: as above
HLA-A*30:02 = assay: as above
HLA-A*66:01 = assay: as above
HLA-B*07:02 = assay: as above
HLA-B*08:01 = assay: as above
HLA-B*14:02 = assay: as above
HLA-B*27:05 = assay: as above
HLA-B*44:02 = assay: as above
HLA-B*53:01 = assay: as above
HLA-B*58:01 = assay: as above
HLA-A*68:02 = assay: IEDB peptide-MHC binding, purified MHC/direct/fluorescence; filed as Kd, often an IC50 or EC50 that approximates it; ≥ and ≤ were set here for values at or beyond the usual limits of such assays; settings: source organism: Burkholderia mallei ATCC 23344
HLA-B*18:01 = assay: as above; settings: source organism: Burkholderia mallei ATCC 23344
HLA-B*40:01 [2] = assay: IEDB peptide-MHC binding, purified MHC/competitive/fluorescence; filed as Kd, often an IC50 or EC50 that approximates it; ≥ and ≤ were set here for values at or beyond the usual limits of such assays; settings: source organism: Burkholderia mallei SAVP1
[3] = source organism: Entamoeba histolytica HM-1:IMSS
[4] = source organism: Burkholderia mallei ATCC 23344
[5] = source organism: Burkholderia mallei SAVP1

Q: DLYDMIHNV was tested. Which Kd (HLA-A*02:01; source organism: Camelpox virus CMS) did it give?
A: 0.0159 µM

Q: And the Kd (HLA-A*02:03)?
A: 0.006 µM

Q: What about the Kd (HLA-A*02:06; source organism: Variola virus) of the same sequence?
A: 0.076 µM

Q: What about the Kd (HLA-A*69:01) of the same sequence?
A: 0.002 µM

Q: With IESNPLFPV as the sequence, how does the Kd (HLA-A*02:01; [3]) read?
A: ≥ 20 µM

Q: What about the Kd (HLA-A*02:06; [3]) of the same sequence?
A: 0.034 µM

Q: What about the Kd (HLA-A*02:11) of the same sequence?
A: ≥ 20 µM

Q: And the Kd (HLA-A*02:12)?
A: 0.922 µM

Q: What about the Kd (HLA-A*02:16; [3]) of the same sequence?
A: ≥ 20 µM

Q: And the Kd (HLA-A*02:19)?
A: ≥ 20 µM

Q: What about the Kd (HLA-A*03:01; [3]) of the same sequence?
A: ≥ 20 µM

Q: What about the Kd (HLA-A*23:01; [3]) of the same sequence?
A: ≥ 20 µM

Q: And the Kd (HLA-A*24:03; [3])?
A: ≥ 20 µM

Q: What about the Kd (HLA-A*26:01) of the same sequence?
A: ≥ 20 µM

Q: What about the Kd (HLA-A*29:02; [3]) of the same sequence?
A: ≥ 20 µM

Q: And the Kd (HLA-B*15:01; [3])?
A: ≥ 20 µM

Q: What about the Kd (HLA-B*15:17; [3]) of the same sequence?
A: ≥ 20 µM

Q: And the Kd (HLA-B*27:03; [3])?
A: ≥ 20 µM

Q: And the Kd (HLA-B*39:01; [3])?
A: ≥ 20 µM

Q: And the Kd (HLA-B*40:01 [1])?
A: 0.051 µM

Q: What about the Kd (HLA-B*46:01; [3]) of the same sequence?
A: ≥ 20 µM

Q: And the Kd (HLA-B*51:01; [3])?
A: ≥ 20 µM

Q: And the Kd (HLA-B*57:01; [3])?
A: ≥ 20 µM

Q: What about the Kd (HLA-A*01:01; [3]) of the same sequence?
A: ≥ 5 µM

Q: And the Kd (HLA-A*11:01; [3])?
A: ≥ 5 µM

Q: What about the Kd (HLA-A*30:01; [3]) of the same sequence?
A: ≥ 5 µM

Q: And the Kd (HLA-A*30:02; [3])?
A: ≥ 5 µM

Q: And the Kd (HLA-A*66:01; [3])?
A: ≥ 5 µM

Q: And the Kd (HLA-B*07:02; [3])?
A: ≥ 5 µM

Q: What about the Kd (HLA-B*08:01; [3]) of the same sequence?
A: ≥ 5 µM

Q: What about the Kd (HLA-B*14:02; [3]) of the same sequence?
A: ≥ 5 µM

Q: What about the Kd (HLA-B*27:05; [3]) of the same sequence?
A: ≥ 5 µM

Q: And the Kd (HLA-B*44:02; [3])?
A: ≥ 5 µM

Q: And the Kd (HLA-B*53:01; [3])?
A: ≥ 5 µM

Q: And the Kd (HLA-B*58:01; [3])?
A: ≥ 5 µM

Q: Which results are given for NVMDPMHGA?
A: Kd (HLA-A*02:01; [4]): ≥ 20 µM; Kd (HLA-A*02:16; [4]): ≥ 20 µM; Kd (HLA-A*03:01; [4]): ≥ 20 µM; Kd (HLA-A*23:01; [4]): ≥ 20 µM; Kd (HLA-A*24:03; [4]): ≥ 20 µM; Kd (HLA-A*29:02; [4]): ≥ 20 µM; Kd (HLA-A*68:02): ≤ 0.001 µM; Kd (HLA-B*15:01; [4]): ≥ 20 µM; Kd (HLA-B*15:17; [4]): ≥ 20 µM; Kd (HLA-B*18:01): ≥ 20 µM; Kd (HLA-B*27:03; [4]): ≥ 20 µM; Kd (HLA-B*39:01; [4]): ≥ 20 µM; Kd (HLA-B*46:01; [4]): ≥ 20 µM; Kd (HLA-B*51:01; [4]): ≥ 20 µM; Kd (HLA-B*57:01; [4]): ≥ 20 µM; Kd (HLA-A*01:01; [5]): ≥ 5 µM; Kd (HLA-A*11:01; [5]): ≥ 5 µM; Kd (HLA-A*30:01; [5]): ≥ 5 µM; Kd (HLA-A*30:02; [5]): ≥ 5 µM; Kd (HLA-A*66:01; [5]): ≥ 5 µM; Kd (HLA-B*07:02; [5]): ≥ 5 µM; Kd (HLA-B*08:01; [5]): ≥ 5 µM; Kd (HLA-B*14:02; [5]): ≥ 5 µM; Kd (HLA-B*27:05; [5]): ≥ 5 µM; Kd (HLA-B*40:01 [2]): ≥ 5 µM; Kd (HLA-B*44:02; [5]): ≥ 5 µM; Kd (HLA-B*53:01; [5]): ≥ 5 µM; Kd (HLA-B*58:01; [5]): ≥ 5 µM
